Source: PMC5473940, “SAF-A Regulates Interphase Chromosome Structure through Oligomerization with Chromatin-Associated RNAs” (Cell, 2017)

Target: the molecule itself
Experiment: native gel or EMSA; FLAG-SAF-A cross-linked in cells with 1 mM DTME, immuno-purified, cross-links reversed with 10 mM DTT, incubated 30 min at 37°C with 1 mM ATP or ATPγS, RNase A/T1 or apyrase (the last two promoted monomerization); native PAGE and western blot

B1: full-length FLAG-tagged SAF-A (293T) (natural protein)
chain: not shown
notes: SAF-A (HNRNP-U), human cDNA from Genome Cube; Modified pcDNA5/FRT vector; also called FLAG-SAF-A; 3xFLAG-SAF-A; source: 293T, expressed, cross-linked in cells, immuno-purified (anti-FLAG M2 agarose, 3xFLAG peptide elution); not shown: 3xFLAG, N-terminal, kept
binding result: binds
